The values that follow are results of earlier work, collected in paper PMC7557795.

As a reminder, the Kd is a measure of binding affinity in units of concentration.

The target of one series is IL-6R (Homo sapiens) (UniProt P08887).
Series [1] addresses IL-6R/gp130 (Homo sapiens) (UniProt P08887).

Sequence of IL-6 (P05231 30-212): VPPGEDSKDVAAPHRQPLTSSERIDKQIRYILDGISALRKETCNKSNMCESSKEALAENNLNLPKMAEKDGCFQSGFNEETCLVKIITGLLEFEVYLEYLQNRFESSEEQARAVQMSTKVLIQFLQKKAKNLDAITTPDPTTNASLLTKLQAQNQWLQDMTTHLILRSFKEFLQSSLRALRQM
Sequence of IL-6R/gp130 (Homo sapiens) (P08887 20-365, chain 1 of 2): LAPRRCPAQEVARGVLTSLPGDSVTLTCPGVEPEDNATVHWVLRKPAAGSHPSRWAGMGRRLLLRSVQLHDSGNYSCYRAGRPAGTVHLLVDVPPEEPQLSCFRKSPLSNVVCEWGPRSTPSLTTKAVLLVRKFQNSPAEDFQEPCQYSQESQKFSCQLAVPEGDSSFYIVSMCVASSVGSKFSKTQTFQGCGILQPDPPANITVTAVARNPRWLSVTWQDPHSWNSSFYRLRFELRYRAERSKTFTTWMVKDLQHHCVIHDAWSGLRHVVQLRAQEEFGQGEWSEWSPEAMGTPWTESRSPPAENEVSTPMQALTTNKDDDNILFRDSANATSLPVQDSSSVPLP
Sequence of IL-6R/gp130 (Homo sapiens) (partner, as listed by the source, chain 2 of 2): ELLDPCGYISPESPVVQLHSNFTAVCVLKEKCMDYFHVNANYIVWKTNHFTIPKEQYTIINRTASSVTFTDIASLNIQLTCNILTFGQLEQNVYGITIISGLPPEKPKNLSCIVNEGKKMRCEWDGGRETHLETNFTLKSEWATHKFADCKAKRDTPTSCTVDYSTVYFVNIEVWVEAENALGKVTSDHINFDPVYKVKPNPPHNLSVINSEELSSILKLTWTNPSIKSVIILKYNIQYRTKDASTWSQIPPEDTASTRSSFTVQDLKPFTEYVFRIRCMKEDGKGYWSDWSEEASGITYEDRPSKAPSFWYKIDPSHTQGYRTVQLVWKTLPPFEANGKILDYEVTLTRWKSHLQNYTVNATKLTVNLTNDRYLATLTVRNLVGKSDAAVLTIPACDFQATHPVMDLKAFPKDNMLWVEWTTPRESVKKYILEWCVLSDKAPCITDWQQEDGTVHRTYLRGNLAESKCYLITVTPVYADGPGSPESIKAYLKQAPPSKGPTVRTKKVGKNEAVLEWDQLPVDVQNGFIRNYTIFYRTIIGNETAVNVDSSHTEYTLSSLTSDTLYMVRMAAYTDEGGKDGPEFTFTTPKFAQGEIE
Sequence of IL-6R (Homo sapiens) (P08887 20-355): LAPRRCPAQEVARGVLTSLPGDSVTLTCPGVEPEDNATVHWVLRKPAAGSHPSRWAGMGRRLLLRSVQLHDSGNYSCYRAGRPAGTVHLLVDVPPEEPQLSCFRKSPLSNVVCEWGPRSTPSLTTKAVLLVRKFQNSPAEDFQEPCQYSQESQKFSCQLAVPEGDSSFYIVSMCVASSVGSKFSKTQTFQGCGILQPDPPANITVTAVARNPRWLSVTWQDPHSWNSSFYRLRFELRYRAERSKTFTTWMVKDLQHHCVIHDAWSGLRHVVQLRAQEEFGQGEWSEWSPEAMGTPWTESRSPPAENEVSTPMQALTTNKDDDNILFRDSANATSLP

With IL-6 (from UniProt P05231), the Kd is 0.9 nM with IL-6R (Homo sapiens) and 0.08 nM in series [1].
